# “And” between values parts separate entries of the source, which are not always exact repeats. Equal values may be shown once. Read-outs that look alike come from different tables or passages of the source.
# Tests used:
# AUC [1] = molecular target: the molecule itself; experiment: AUC
# AUC [2] = molecular target: the molecule itself; experiment: AUC; remark: listed apart in the source
# AUC [3] = molecular target: the molecule itself; experiment: AUC; remark: listed apart in the source
# O43175 = experiment: AUC
# [4] = molecular target: the molecule itself
# AUC [5] = molecular target: the molecule itself; experiment: AUC; remark: listed apart in the source
# [6] = molecular target: the molecule itself; experiment: cell-based or functional assay
Protein,stoichiometry N (AUC [2]),stoichiometry N (AUC [5]),other results
"full-length human D-3-phosphoglycerate dehydrogenase (PHGDH, 1-533), wild type (enzyme, UniProt O43175 1-533, looked up) MAFANLRKVLISDSLDPCCRKILQDGGLQVVEKQNLSKEELIAELQDCEGLIVRSATKVTADVINAAEKLQVVGRAGTGVDNVDLEAATRKGILVMNTPNGNSLSAAELTCGMIMCLARQIPQATASMKDGKWERKKFMGTELNGKTLGILGLGRIGREVATRMQSFGMKTIGYDPIISPEVSASFGVQQLPLEEIWPLCDFITVHTPLLPSTTGLLNDNTFAQCKKGVRVVNCARGGIVDEGALLRALQSGQCAGAALDVFTEEPPRDRALVDHENVISCPHLGASTKEAQSRCGEEIAVQFVDMVKGKSLTGVVNAQALTSAFSPHTKPWIGLAEALGTLMRAWAGSPKGTIQVITQGTSLKNAGNCLSPAVIVGLLKEASKQADVNLVNAKLLVKEAGLNVTTSHSPAAPGEQGFGECLLAVALAGAPYQAVGLVQGTTPVLQGLNGAVFRPEVPLRRDLPLLLFRTQTSDPAMLPTMIGLLAEAGVRLLSYQTSLVSDGETWHVMGISSLLPSLEAWKQHVTEAFQFHF",–,–,stoichiometry N (AUC [1]): 2 and 4
"full-length PHGDH G140R (enzyme, human, UniProt O43175 1-533, looked up) MAFANLRKVLISDSLDPCCRKILQDGGLQVVEKQNLSKEELIAELQDCEGLIVRSATKVTADVINAAEKLQVVGRAGTGVDNVDLEAATRKGILVMNTPNGNSLSAAELTCGMIMCLARQIPQATASMKDGKWERKKFMRTELNGKTLGILGLGRIGREVATRMQSFGMKTIGYDPIISPEVSASFGVQQLPLEEIWPLCDFITVHTPLLPSTTGLLNDNTFAQCKKGVRVVNCARGGIVDEGALLRALQSGQCAGAALDVFTEEPPRDRALVDHENVISCPHLGASTKEAQSRCGEEIAVQFVDMVKGKSLTGVVNAQALTSAFSPHTKPWIGLAEALGTLMRAWAGSPKGTIQVITQGTSLKNAGNCLSPAVIVGLLKEASKQADVNLVNAKLLVKEAGLNVTTSHSPAAPGEQGFGECLLAVALAGAPYQAVGLVQGTTPVLQGLNGAVFRPEVPLRRDLPLLLFRTQTSDPAMLPTMIGLLAEAGVRLLSYQTSLVSDGETWHVMGISSLLPSLEAWKQHVTEAFQFHF",2,–,–
"full-length PHGDH E108A (enzyme, human, UniProt O43175 1-533, looked up) MAFANLRKVLISDSLDPCCRKILQDGGLQVVEKQNLSKEELIAELQDCEGLIVRSATKVTADVINAAEKLQVVGRAGTGVDNVDLEAATRKGILVMNTPNGNSLSAAALTCGMIMCLARQIPQATASMKDGKWERKKFMGTELNGKTLGILGLGRIGREVATRMQSFGMKTIGYDPIISPEVSASFGVQQLPLEEIWPLCDFITVHTPLLPSTTGLLNDNTFAQCKKGVRVVNCARGGIVDEGALLRALQSGQCAGAALDVFTEEPPRDRALVDHENVISCPHLGASTKEAQSRCGEEIAVQFVDMVKGKSLTGVVNAQALTSAFSPHTKPWIGLAEALGTLMRAWAGSPKGTIQVITQGTSLKNAGNCLSPAVIVGLLKEASKQADVNLVNAKLLVKEAGLNVTTSHSPAAPGEQGFGECLLAVALAGAPYQAVGLVQGTTPVLQGLNGAVFRPEVPLRRDLPLLLFRTQTSDPAMLPTMIGLLAEAGVRLLSYQTSLVSDGETWHVMGISSLLPSLEAWKQHVTEAFQFHF",2,–,–
"full-length PHGDH I121A (enzyme, human, UniProt O43175 1-533, looked up) MAFANLRKVLISDSLDPCCRKILQDGGLQVVEKQNLSKEELIAELQDCEGLIVRSATKVTADVINAAEKLQVVGRAGTGVDNVDLEAATRKGILVMNTPNGNSLSAAELTCGMIMCLARQAPQATASMKDGKWERKKFMGTELNGKTLGILGLGRIGREVATRMQSFGMKTIGYDPIISPEVSASFGVQQLPLEEIWPLCDFITVHTPLLPSTTGLLNDNTFAQCKKGVRVVNCARGGIVDEGALLRALQSGQCAGAALDVFTEEPPRDRALVDHENVISCPHLGASTKEAQSRCGEEIAVQFVDMVKGKSLTGVVNAQALTSAFSPHTKPWIGLAEALGTLMRAWAGSPKGTIQVITQGTSLKNAGNCLSPAVIVGLLKEASKQADVNLVNAKLLVKEAGLNVTTSHSPAAPGEQGFGECLLAVALAGAPYQAVGLVQGTTPVLQGLNGAVFRPEVPLRRDLPLLLFRTQTSDPAMLPTMIGLLAEAGVRLLSYQTSLVSDGETWHVMGISSLLPSLEAWKQHVTEAFQFHF",2,–,–
"full-length PHGDH R119A (enzyme, human, UniProt O43175 1-533, looked up) MAFANLRKVLISDSLDPCCRKILQDGGLQVVEKQNLSKEELIAELQDCEGLIVRSATKVTADVINAAEKLQVVGRAGTGVDNVDLEAATRKGILVMNTPNGNSLSAAELTCGMIMCLAAQIPQATASMKDGKWERKKFMGTELNGKTLGILGLGRIGREVATRMQSFGMKTIGYDPIISPEVSASFGVQQLPLEEIWPLCDFITVHTPLLPSTTGLLNDNTFAQCKKGVRVVNCARGGIVDEGALLRALQSGQCAGAALDVFTEEPPRDRALVDHENVISCPHLGASTKEAQSRCGEEIAVQFVDMVKGKSLTGVVNAQALTSAFSPHTKPWIGLAEALGTLMRAWAGSPKGTIQVITQGTSLKNAGNCLSPAVIVGLLKEASKQADVNLVNAKLLVKEAGLNVTTSHSPAAPGEQGFGECLLAVALAGAPYQAVGLVQGTTPVLQGLNGAVFRPEVPLRRDLPLLLFRTQTSDPAMLPTMIGLLAEAGVRLLSYQTSLVSDGETWHVMGISSLLPSLEAWKQHVTEAFQFHF",2,–,–
"sPHGDH (catalytic unit of human D-3-phosphoglycerate dehydrogenase, 1-307), wild type (domain or fragment, UniProt O43175 1-307, looked up) MAFANLRKVLISDSLDPCCRKILQDGGLQVVEKQNLSKEELIAELQDCEGLIVRSATKVTADVINAAEKLQVVGRAGTGVDNVDLEAATRKGILVMNTPNGNSLSAAELTCGMIMCLARQIPQATASMKDGKWERKKFMGTELNGKTLGILGLGRIGREVATRMQSFGMKTIGYDPIISPEVSASFGVQQLPLEEIWPLCDFITVHTPLLPSTTGLLNDNTFAQCKKGVRVVNCARGGIVDEGALLRALQSGQCAGAALDVFTEEPPRDRALVDHENVISCPHLGASTKEAQSRCGEEIAVQFVDMV",–,–,stoichiometry N (AUC [3]): 2; total concentration at which the dimer and monomer peak ratio is 1:1 (O43175): the 1:1 ratio at about 1 μM; Kd [4]: 580 nM
"sPHGDH R236E (domain or fragment, human, UniProt O43175 1-307, looked up) MAFANLRKVLISDSLDPCCRKILQDGGLQVVEKQNLSKEELIAELQDCEGLIVRSATKVTADVINAAEKLQVVGRAGTGVDNVDLEAATRKGILVMNTPNGNSLSAAELTCGMIMCLARQIPQATASMKDGKWERKKFMGTELNGKTLGILGLGRIGREVATRMQSFGMKTIGYDPIISPEVSASFGVQQLPLEEIWPLCDFITVHTPLLPSTTGLLNDNTFAQCKKGVRVVNCAEGGIVDEGALLRALQSGQCAGAALDVFTEEPPRDRALVDHENVISCPHLGASTKEAQSRCGEEIAVQFVDMV",–,2,–
"sPHGDH R135A (domain or fragment, human, UniProt O43175 1-307, looked up) MAFANLRKVLISDSLDPCCRKILQDGGLQVVEKQNLSKEELIAELQDCEGLIVRSATKVTADVINAAEKLQVVGRAGTGVDNVDLEAATRKGILVMNTPNGNSLSAAELTCGMIMCLARQIPQATASMKDGKWEAKKFMGTELNGKTLGILGLGRIGREVATRMQSFGMKTIGYDPIISPEVSASFGVQQLPLEEIWPLCDFITVHTPLLPSTTGLLNDNTFAQCKKGVRVVNCARGGIVDEGALLRALQSGQCAGAALDVFTEEPPRDRALVDHENVISCPHLGASTKEAQSRCGEEIAVQFVDMV",–,2,enzyme activity of the sPHGDH mutant at 2.4 μM against WT [6]: ~80 % of WT
"sPHGDH R135W (domain or fragment, human, UniProt O43175 1-307, looked up) MAFANLRKVLISDSLDPCCRKILQDGGLQVVEKQNLSKEELIAELQDCEGLIVRSATKVTADVINAAEKLQVVGRAGTGVDNVDLEAATRKGILVMNTPNGNSLSAAELTCGMIMCLARQIPQATASMKDGKWEWKKFMGTELNGKTLGILGLGRIGREVATRMQSFGMKTIGYDPIISPEVSASFGVQQLPLEEIWPLCDFITVHTPLLPSTTGLLNDNTFAQCKKGVRVVNCARGGIVDEGALLRALQSGQCAGAALDVFTEEPPRDRALVDHENVISCPHLGASTKEAQSRCGEEIAVQFVDMV",–,2,–

# Reference: paper PMC8081924 (The Journal of Biological Chemistry, 2021)
